± gives the standard deviation of the averaged measurements.

This series can be described thus: total protein half-life in vivo (active degradation + dilution); higher = more stable protein.
The mark [1] stands for this setting: E. coli NCM3722 delta-clpP delta-lon delta-hslV, growth: N-lim chemostat, doubling time 6 h.
[2] abbreviates: wild type E. coli NCM3722, growth: C-lim chemostat, doubling time 3 h.
[3] abbreviates: E. coli NCM3722 delta-clpP, growth: N-lim chemostat, doubling time 6 h.
[4] abbreviates: E. coli NCM3722 delta-hslV, growth: N-lim chemostat, doubling time 6 h.
The mark [5] stands for this setting: E. coli NCM3722 delta-lon, growth: N-lim chemostat, doubling time 6 h.
The mark [6] stands for this setting: E. coli NCM3722 delta-smpB, growth: N-lim chemostat, doubling time 6 h.
Setting [7] is: wild type E. coli NCM3722, growth: C-lim chemostat, doubling time 6 h.
Setting [8] is: wild type E. coli NCM3722, growth: C-lim chemostat, doubling time 12 h.
Where [9] appears, read: wild type E. coli NCM3722, growth: N-lim chemostat, doubling time 6 h.
[10] abbreviates: wild type E. coli NCM3722, growth: N-lim chemostat, doubling time 12 h.
Setting [11] is: wild type E. coli NCM3722, growth: P-lim chemostat, doubling time 6 h.
Setting [12] is: wild type E. coli NCM3722, growth: P-lim chemostat, doubling time 12 h.

For the sequence “MTDDFAPDGQLAKAIPGFKPREPQRQMAVAVTQAIEKGQPLVVEAGTGTGKTYAYLAPALRAKKKVIISTGSKALQDQLYSRDLPTVSKALKYTGNVALLKGRSNYLCLERLEQQALAGGDLPVQILSDVILLRSWSNQTVDGDISTCVSVAEDSQAWPLVTSTNDNCLGSDCPMYKDCFVVKARKKAMDADVVVVNHHLFLADMVVKESGFGELIPEADVMIFDEAHQLPDIASQYFGQSLSSRQLLDLAKDITIAYRTELKDTQQLQKCADRLAQSAQDFRLQLGEPGYRGNLRELLANPQIQRAFLLLDDTLELCYDVAKLSLGRSALLDAAFERATLYRTRLKRLKEINQPGYSYWYECTSRHFTLALTPLSVADKFKELMAQKPGSWIFTSATLSVNDDLHHFTSRLGIEQAESLLLPSPFDYSRQALLCVLRNLPQTNQPGSARQLAAMLRPIIEANNGRCFMLCTSHAMMRDLAEQFRATMTLPVLLQGETSKGQLLQQFVSAGNALLVATSSFWEGVDVRGDTLSLVIIDKLPFTSPDDPLLKARMEDCRLRGGDPFDEVQLPDAVITLKQGVGRLIRDADDRGVLVICDNRLVMRPYGATFLASLPPAPRTRDIARAVRFLAIPSSR”, the “total protein half-life in vivo” value runs as follows: under setting [1], 5.98 ± 0.95 h; under setting [2], 3.37 h.
On to “MAINNTGSRRLLVTLTALFAALCGLYLLIGGGWLVAIGGSWYYPIAGLVMLGVAWMLWRSKRAALWLYAALLLGTMIWGVWEVGFDFWALTPRSDILVFFGIWLILPFVWRRLVIPASGAVAALVVALLISGGILTWAGFNDPQEINGTLSADATPAEAISPVADQDWPAYGRNQEGQRFSPLKQINADNVHNLKEAWVFRTGDVKQPNDPGEITNEVTPIKVGDTLYLCTAHQRLFALDAASGKEKWHYDPELKTNESFQHVTCRGVSYHEAKAETASPEVMADCPRRIILPVNDGRLIAINAENGKLCETFANKGVLNLQSNMPDTKPGLYEPTSPPIITDKTIVMAGSVTDNFSTRETSGVIRGFDVNTGELLWAFDPGAKDPNAIPSDEHTFTFNSPNSWAPAAYDAKLDLVYLPMGVTTPDIWGGNRTPEQERYASSILALNATTGKLAWSYQTVHHDLWDMDLPAQPTLADITVNGQKVPVIYAPAKTGNIFVLDRRNGELVVPAPEKPVPQGAAKGDYVTPTQPFSELSFRPTKDLSGADMWGATMFDQLVCRVMFHQMRYEGIFTPPSEQGTLVFPGNLGMFEWGGISVDPNREVAIANPMALPFVSKLIPRGPGNPMEQPKDAKGTGTESGIQPQYGVPYGVTLNPFLSPFGLPCKQPAWGYISALDLKTNEVVWKKRIGTPQDSMPFPMPVPVPFNMGMPMLGGPISTAGNVLFIAATADNYLRAYNMSNGEKLWQGRLPAGGQATPMTYEVNGKQYVVISAGGHGSFGTKMGDYIVAYALPDDVK”, for which the “total protein half-life in vivo” value under setting [1] is 6.446 ± 0.039 h; the “total protein half-life in vivo” value under setting [3] worked out at 7.31 ± 0.86 h; the “total protein half-life in vivo” value under setting [4] came out at 5.96 ± 0.15 h; the “total protein half-life in vivo” value under setting [5] was determined as 6.58 ± 0.58 h; the “total protein half-life in vivo” value under setting [6] was determined as 6.14 ± 0.11 h; the “total protein half-life in vivo” value under setting [2] turned out to be 3.18 ± 0.17 h. The “total protein half-life in vivo” value amounted to 6.44 ± 0.37 h under setting [7]; 13.8 ± 0.65 h under setting [8]; 6.04 ± 0.28 h under setting [9]; 13.4 ± 0.83 h under setting [10]; 6.54 ± 0.22 h under setting [11]; 13.69 ± 0.084 h under setting [12].
For “MKKAIAYMRFSSPGQMSGDSLNRQRRLIAEWLKVNSDYYLDTITYEDLGLSAFKGKHAQSGAFSEFLDAIEHGYILPGTTLLVESLDRLSREKVGEAIERLKLILNHGIDVITLCDNTVYNIDSLNEPYSLIKAILIAQRANEESEIKSSRVKLSWKKKRQDALESGTIMTASCPRWLSLDDKRTAFVPDPDRVKTIELIFKLRMERRSLNAIAKYLNDHAVKNFSGKESAWGPSVIEKLLANKALIGICVPSYRARGKGISEIAGYYPRVISDDLFYAVQEIRLAPFGISNSSKNPMLINLLRTVMKCEACGNTMIVHAVSGSLHGYYVCPMRRLHRCDRPSIKRDLVDYNIINELLFNCSKIQPVENKKDANETLELKIIELQMKINNLIVALSVAPEVTAIAEKIRLLDKELRRASVSLKTLKSKGVNSFSDFYAIDLTSKNGRELCRTLAYKTFEKIIINTDNKTCDIYFMNGIVFKHYPLMKVISAQQAISALKYMVDGEIYF”, the “total protein half-life in vivo” value runs as follows: under setting [1], over 8 h; under setting [3], 1.49 h; under setting [2], 1.41 h; under setting [8], 1.97 h; under setting [10], 14 h.
In the case of “MNDTYQPINCDDYDNLELACQHHLMLTLELKDGEKLQAKASDLVSRKNVEYLVVEAAGETRELRLDKITSFSHPEIGTVVVSES [P0AFW8]”, the “total protein half-life in vivo” value is, setting by setting: under setting [3], 4.86 ± 0.14 h; under setting [4], 1.83 h; under setting [5], 2.15 ± 0.34 h; under setting [6], 1.79 ± 0.12 h; under setting [7], 1.91 h; under setting [8], 3.49 ± 0.41 h. For the same sequence, the “total protein half-life in vivo” value amounted to 2.05 ± 0.44 h under setting [9], 3.37 h under setting [10], 3.17 ± 1.2 h under setting [11] and 5.3 ± 1.6 h under setting [12].
For the sequence “MPQSALFTGIIPPVSTIFTADGQLDKPGTAALIDDLIKAGVDGLFFLGSGGEFSQLGAEERKAIARFAIDHVDRRVPVLIGTGGTNARETIELSQHAQQAGADGIVVINPYYWKVSEANLIRYFEQVADSVTLPVMLYNFPALTGQDLTPALVKTLADSRSNIIGIKDTIDSVAHLRSMIHTVKGAHPHFTVLCGYDDHLFNTLLLGGDGAISASGNFAPQVSVNLLKAWRDGDVAKAAGYHQTLLQIPQMYQLDTPFVNVIKEAIVLCGRPVSTHVLPPASPLDEPRKAQLKTLLQQLKLC”, the “total protein half-life in vivo” value under setting [4] came out at 3.07 h.
Regarding “MTDKLTSLRQYTTVVADTGDIAAMKLYQPQDATTNPSLILNAAQIPEYRKLIDDAVAWAKQQSNDRAQQIVDATDKLAVNIGLEILKLVPGRISTEVDARLSYDTEASIAKAKRLIKLYNDAGISNDRILIKLASTWQGIRAAEQLEKEGINCNLTLLFSFAQARACAEAGVFLISPFVGRILDWYKANTDKKEYAPAEDPGVVSVSEIYQYYKEHGYETVVMGASFRNIGEILELAGCDRLTIAPALLKELAESEGAIERKLSYTGEVKARPARITESEFLWQHNQDPMAVDKLAEGIRKFAIDQEKLEKMIGDLL [P0A870]”, the “total protein half-life in vivo” value is, setting by setting: under setting [1], 5.35 ± 0.57 h; under setting [3], 5.12 ± 0.34 h; under setting [4], 5.35 ± 0.39 h; under setting [5], 5.6 ± 0.23 h; under setting [6], 5.04 ± 0.11 h; under setting [2], 3.448 ± 0.0017 h. Further, the “total protein half-life in vivo” value reads like this: under setting [7], 5.81 ± 0.19 h; under setting [8], 11.1 ± 1.2 h; under setting [9], 5.14 ± 0.23 h; under setting [10], 9.23 ± 0.13 h; under setting [11], 6.18 ± 0.083 h; under setting [12], 13.7 ± 0.78 h.
Consider “MLYIFDLGNVIVDIDFNRVLGAWSDLTRIPLASLKKSFHMGEAFHQHERGEISDEAFAEALCHEMALPLSYEQFSHGWQAVFVALRPEVIAIMHKLREQGHRVVVLSNTNRLHTTFWPEEYPEIRDAADHIYLSQDLGMRKPEARIYQHVLQAEGFSPSDTVFFDDNADNIEGANQLGITSILVKDKTTIPDYFAKVLC [P0A8Y3]”, for which the “total protein half-life in vivo” value is, setting by setting: under setting [3], 5.75 ± 1.6 h; under setting [4], 3.94 ± 0.21 h; under setting [5], 5 ± 0.69 h; under setting [6], 4.212 ± 0.04 h; under setting [2], 2.92 ± 0.13 h; under setting [7], 6.31 ± 0.65 h. The “total protein half-life in vivo” value is, setting by setting: under setting [8], 9.46 ± 0.36 h; under setting [9], 4.14 ± 0.74 h; under setting [10], 6.16 ± 0.12 h; under setting [11], 5.18 ± 0.06 h; under setting [12], 9.4 ± 0.48 h.

The record behind these values is the supplement of paper PMC11246515.
